Test results published in paper PMC11544243 (Nature Communications, 2024).
Blank lines part the entries; values can stand above or below the molecule they belong to.

Tests used:
Assay in all cases: SEC-MALS
[1] = biological target: Trx-EAT-17F (C. elegans) (UniProt S6F527)
[2] = biological target: MBP-BICD-1 CTF (C. elegans)
[3] = biological target: the molecule itself

- stoichiometry N (BICD-1 CTF per EAT-17F (printed as 2:2)) [1]: 1
- stoichiometry N [2]: 2
Molecule: MBP-BICD-1 CTF (domain or fragment)

B1: Trx-EAT-17F (natural protein, C. elegans, UniProt S6F527-6 1-396, looked up)
chain: MNSDVHRKLEGAYETIRELSSARRDNIMDTGTQVDDTSMIEHIHSLQQELIEAHTRQADSENTLRDAKLRVSELEMANKRLLENEPSEDVAGLQEELISVKMREAESSLALKEMRQRLAELEQHWAKYVHVRAFDPSSASIEKESTSEAHSTQQQPSPPLTSARARLAKITASLIGGSTEETDNCISVRELEDQLMGVRIKEADTLAELKEMRQKVMELETQNHVCTNQLKRQDEEMKRVREDSEVLVKKRKELEDQLKDEKEKLDNKESEFNEGRINDRLKYSEAMQTIQDLQSSISQLELKKAEKWTQNQLRGSSVCDLDEESNSHGSICSNVDHLSLASDEMNALLADMTVRIPTLDDLAEEGSATETDELRPKELNDGNDTTDSGVQLSDSH
- stoichiometry N [3]: 2
